Reference: the supplement of paper PMC10567573

B1: HSP90AB1 (parent)
chain: TLRQKAEADKNDKAVKDLVVLLFE

Variants of: B1
Assay: protein stability index of a GFP-peptide fusion (GPS, HEK-293T) (PSI 1-6); higher = more stable
Conditions: c terminus: a fixed tail appended
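Also: lentivirally expressed fusions sorted by FACS into six bins by GFP to DsRed ratio, PSI derived from sequencing read proportions per bin multiplied by bin number.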

Variant	protein stability index
TLRQKAEADKNDDAVKDLVVLLFE [K13D]	2.63
TLRQKAEADKNDYAVKDLVVLLFE [K13Y]	2.2
TLRQKAEADKNDCAVKDLVVLLFE [K13C]	2.84
TLRQKAEADKNDHAVKDLVVLLFE [K13H]	2.46
TLRQKAEADKNDAAVKDLVVLLFE [K13A]	3.19
TLRQKAEADKNDTAVKDLVVLLFE [K13T]	2.96
TLRQKAEADKNDIAVKDLVVLLFE [K13I]	2.47
TLRQKAEADKNDEAVKDLVVLLFE [K13E]	3.39
TLRQKAEADKNDGAVKDLVVLLFE [K13G]	2.77
TLRQKAEADKNDWAVKDLVVLLFE [K13W]	1.73
TLRQKAEADKNDFAVKDLVVLLFE [K13F]	1.93
TLRQKAEADKNDQAVKDLVVLLFE [K13Q]	3.21
TLRQKAEADKNDNAVKDLVVLLFE [K13N]	2.85
TLRQKAEADKNDMAVKDLVVLLFE [K13M]	2.75
TLRQKAEADKNDPAVKDLVVLLFE [K13P]	3.22
TLRQKAEADKNDVAVKDLVVLLFE [K13V]	2.91
TLRQKAEADKNDSAVKDLVVLLFE [K13S]	2.99
TLRQKAEADKNDKAVKDKVVLLFE [L18K]	3.44
TLRQKAEADKNDKAVKDEVVLLFE [L18E]	4.04
TLRQKAEADKNDKAVKDWVVLLFE [L18W]	3.19
TLRQKAEADKNDKAVKDNVVLLFE [L18N]	4.19
TLRQKAEADKNDKAVKDIVVLLFE [L18I]	2.95
TLRQKAEADKNDKAVKDHVVLLFE [L18H]	3.3
TLRQKAEADKNDKAVKDQVVLLFE [L18Q]	4.03

Variant	protein stability index
TLRQKAEADKNDKAVKDMVVLLFE [L18M]	3.29
TLRQKAEADKNDKAVKDYVVLLFE [L18Y]	2.87
TLRQKAEADKNDKAVKDFVVLLFE [L18F]	2.24
TLRQKAEADKNDKAVKDSVVLLFE [L18S]	3.9
TLRQKAEADKNDKAVKDVVVLLFE [L18V]	2.24
TLRQKAEADKNDKAVKDPVVLLFE [L18P]	4.21
TLRQKAEADKNDKAVKDRVVLLFE [L18R]	3.19
TLRQKAEADKNDKAVKDCVVLLFE [L18C]	2.85
TLRQKAEADKNDKAVKDDVVLLFE [L18D]	4.2
TLRQKAEADKNDKAVKDGVVLLFE [L18G]	3.69
TLRQKAEADKNDKAVWDLVVLLFE [K16W]	3.02
TLRQKAEADKNDKAVVDLVVLLFE [K16V]	3.65
TLRQKAEADKNDKAVPDLVVLLFE [K16P]	2.65
TLRQKAEADKNDKAVADLVVLLFE [K16A]	2.87
TLRQKAEADKNDKAVFDLVVLLFE [K16F]	3.28
TLRQKAEADKNDKAVMDLVVLLFE [K16M]	2.86
TLRQKAEADKNDKAVYDLVVLLFE [K16Y]	2.24
TLRQKAEADKNDKAVEDLVVLLFE [K16E]	3.06
TLRQKAEADKNDKAVDDLVVLLFE [K16D]	3.36
TLRQKAEADKNDKAVTDLVVLLFE [K16T]	2.99
TLRQKAEADKNDKAVCDLVVLLFE [K16C]	2.19
TLRQKAEADKNDKAVIDLVVLLFE [K16I]	2.24
TLRQKAEADKNDKAVHDLVVLLFE [K16H]	3.29
TLRQKAEADKNDKAVQDLVVLLFE [K16Q]	3.75

Variant	protein stability index
TLRQKAEADKNDKAVSDLVVLLFE [K16S]	2.92
TLRQKAEADKNDKAVNDLVVLLFE [K16N]	3.44
TLRQKAEADKNDKARKDLVVLLFE [V15R]	2.49
TLRQKAEADKNDKAGKDLVVLLFE [V15G]	3.48
TLRQKAEADKNDKATKDLVVLLFE [V15T]	3.11
TLRQKAEADKNDKASKDLVVLLFE [V15S]	3.09
TLRQKAEADKNDKAAKDLVVLLFE [V15A]	3.1
TLRQKAEADKNDKAPKDLVVLLFE [V15P]	2.54
TLRQKAEADKNDKAFKDLVVLLFE [V15F]	2.91
TLRQKAEADKNDKAEKDLVVLLFE [V15E]	3.37
TLRQKAEADKNDKADKDLVVLLFE [V15D]	3.2
TLRQKAEADKNDKAYKDLVVLLFE [V15Y]	3.43
TLRQKAEADKNDKAQKDLVVLLFE [V15Q]	2.86
TLRQKAEADKNDKAMKDLVVLLFE [V15M]	3.47
TLRQKAEADKNDKALKDLVVLLFE [V15L]	2.81
TLRQKAEADKNDKAWKDLVVLLFE [V15W]	2.64
TLRQKAEADKNDKAKKDLVVLLFE [V15K]	3.27
TLRQKAEADKNDKANKDLVVLLFE [V15N]	3.12
TLRQKAEADKNDKAIKDLVVLLFE [V15I]	2.48
TLRQKAEADKNDKAVKCLVVLLFE [D17C]	1.83
TLRQKAEADKNDKAVKWLVVLLFE [D17W]	2.62
TLRQKAEADKNDKAVKELVVLLFE [D17E]	2.96
TLRQKAEADKNDKAVKPLVVLLFE [D17P]	2.87
TLRQKAEADKNDKAVKFLVVLLFE [D17F]	1.51

Variant	protein stability index
TLRQKAEADKNDKAVKTLVVLLFE [D17T]	1.95
TLRQKAEADKNDKAVKVLVVLLFE [D17V]	1.6
TLRQKAEADKNDKAVKQLVVLLFE [D17Q]	2.04
TLRQKAEADKNDKAVKGLVVLLFE [D17G]	2.26
TLRQKAEADKNDKAVKHLVVLLFE [D17H]	2.52
TLRQKAEADKNDKAVKNLVVLLFE [D17N]	2.69
TLRQKAEADKNDKAVKRLVVLLFE [D17R]	1.98
TLRQKAEADKNDKAVKALVVLLFE [D17A]	1.99
TLRQKAEADKNDKAVKKLVVLLFE [D17K]	2.14
TLRQKAEADKNDKAVKYLVVLLFE [D17Y]	1.91
TLRQKAEADKNDKAVKILVVLLFE [D17I]	2.35
TLRQKAEADKNDKAVKLLVVLLFE [D17L]	1.49
TLRQKAEADKNDKAVKSLVVLLFE [D17S]	2.58
TLRQKAEADKNDKAVKDLVVLLAE [F23A]	3.7
TLRQKAEADKNDKAVKDLVVLLHE [F23H]	4.5
TLRQKAEADKNDKAVKDLVVLLGE [F23G]	4.87
TLRQKAEADKNDKAVKDLVVLLEE [F23E]	5.22
TLRQKAEADKNDKAVKDLVVLLIE [F23I]	2.88
TLRQKAEADKNDKAVKDLVVLLKE [F23K]	4.69
TLRQKAEADKNDKAVKDLVVLLNE [F23N]	4.73
TLRQKAEADKNDKAVKDLVVLLCE [F23C]	3.71
TLRQKAEADKNDKAVKDLVVLLLE [F23L]	3.27
